According to patent EP4725969A1 (Latticon (Suzhou) Biopharmaceuticals Co., Ltd., dated 2024):
Residue numbers refer to the chain shown, from its start.

B1: 2126-Hu-H30 (antibody, IgG1, name in Kabat numbering, V domains shown)
VH: QVQLVQSGSELKKPGASVKVSCKASGYTFTDYSMHWVRQAPGQGLEWMGWINTETGNPTYADDFKGRFVFSLDTSVSTAYLQISSLKAEDTAVYFCVRVGRYDYAMDYWGQGTTVTVSS
VL: DIQMTQSPSSLSASVGDRVTITCKASQDVYTAVAWYQQKPGKAPKLLINSASYRYTGVPSRFSGSGSGTDFTLTISSLQPEDFATYYCQQHYSTPPTFGGGTKVEIK
notes: IgG1/Cκ
B2: 2126-Hu-H59 (antibody, IgG1, V domains shown)
VH: B1 VH with N57E, D103S
VL: B1 VL
notes: IgG1/Cκ
B3: 2126-Hu-H49 (antibody, IgG1, name in Kabat numbering, V domains shown)
VH: B1 VH with N57E, R101N
VL: B1 VL
notes: IgG1/Cκ
B4: 2126-Hu-H57 (antibody, IgG1, name in Kabat numbering, V domains shown)
VH: B1 VH with N57E, D103G
VL: B1 VL
notes: IgG1/Cκ
B5: 2126-Hu-H46 (antibody, IgG1, V domains shown)
VH: B1 VH with N57E, F95Y
VL: B1 VL
notes: IgG1/Cκ
B6: 2126-Hu-L02 (antibody, IgG1, V domains shown)
VH: B1 VH with N57E
VL: B1 VL with K24R
notes: IgG1/Cκ
B7: 2126-Hu-H37 (antibody, IgG1, V domains shown)
VH: B1 VH with N57E, V69S
VL: B1 VL
notes: IgG1/Cκ
B8: 2126-Hu-H47 (antibody, IgG1, name in Kabat numbering, V domains shown)
VH: B1 VH with N57E, R101F
VL: B1 VL
notes: IgG1/Cκ
B9: 2126-Hu-H39 (antibody, IgG1, V domains shown)
VH: B1 VH with N57E, L72V
VL: B1 VL
notes: IgG1/Cκ
B10: 2126-Hu-L01 (antibody, IgG1, V domains shown)
VH: B1 VH with N57E
VL: B1 VL with D28S
notes: IgG1/Cκ
B11: 2126-Hu-L06 (antibody, IgG1, V domains shown)
VH: B1 VH with N57E
VL: B1 VL with S50A
notes: IgG1/Cκ
B12: 2126-Hu-H52 (antibody, IgG1, name in Kabat numbering, V domains shown)
VH: B1 VH with N57E, Y102S
VL: B1 VL
notes: IgG1/Cκ
B13: 2126-Hu-L03 (antibody, IgG1, V domains shown)
VH: B1 VH with N57E
VL: B1 VL with Y30S
notes: IgG1/Cκ
B14: 2126-Hu-H55 (antibody, IgG1, name in Kabat numbering, V domains shown)
VH: B1 VH with N57E, D103A
VL: B1 VL
notes: IgG1/Cκ
B15: 2126-Hu-H32 (antibody, IgG1, V domains shown)
VH: B1 VH with N57S
VL: B1 VL
notes: IgG1/Cκ
B16: 2126-Hu-H51 (antibody, IgG1, name in Kabat numbering, V domains shown)
VH: B1 VH with N57E, Y102F
VL: B1 VL
notes: IgG1/Cκ
B17: 2126-Hu-H61 (antibody, IgG1, V domains shown)
VH: B1 VH with N57E, M106F
VL: B1 VL
notes: IgG1/Cκ
B18: 2126-Hu-H34 (antibody, IgG1, V domains shown)
VH: B1 VH with N57E, D63N
VL: B1 VL
notes: IgG1/Cκ
B19: 2126-Hu-H33 (antibody, IgG1, V domains shown)
VH: B1 VH with N57E, D63K
VL: B1 VL
notes: IgG1/Cκ
B20: 2126-Hu-H31 (antibody, IgG1, V domains shown)
VH: B1 VH with N57D
VL: B1 VL
notes: IgG1/Cκ
B21: 2126-Hu-H44 (antibody, IgG1, V domains shown)
VH: B1 VH with N57E, I83L
VL: B1 VL
notes: IgG1/Cκ
B22: 2126-Hu-L04 (antibody, IgG1, V domains shown)
VH: B1 VH with N57E
VL: B1 VL with A32Y
notes: IgG1/Cκ
B23: 2126-Hu-H40 (antibody, IgG1, V domains shown)
VH: B1 VH with N57E, L72R
VL: B1 VL
notes: IgG1/Cκ
B24: 2126-Hu-H53 (antibody, IgG1, name in Kabat numbering, V domains shown)
VH: B1 VH with N57E, Y102N
VL: B1 VL
notes: IgG1/Cκ
B25: 2126-Hu-L07 (antibody, IgG1, V domains shown)
VH: B1 VH with N57E
VL: B1 VL with Y53D
notes: IgG1/Cκ
B26: 2126-Hu-H54 (antibody, IgG1, V domains shown)
VH: B1 VH with N57E, Y102G
VL: B1 VL
notes: IgG1/Cκ
B27: 2126-Hu-H35 (antibody, IgG1, V domains shown)
VH: B1 VH with N57E, F64V
VL: B1 VL
notes: IgG1/Cκ
B28: 2126-Hu-H42 (antibody, IgG1, V domains shown)
VH: B1 VH with N57E, V76K
VL: B1 VL
notes: IgG1/Cκ
B29: 2126-Hu-H50 (antibody, IgG1, V domains shown)
VH: B1 VH with N57E, R101Y
VL: B1 VL
notes: IgG1/Cκ
B30: 2126-Hu-H38 (antibody, IgG1, V domains shown)
VH: B1 VH with N57E, F70I
VL: B1 VL
notes: IgG1/Cκ
B31: 2126-Hu-H58 (antibody, IgG1, name in Kabat numbering, V domains shown)
VH: B1 VH with N57E, D103Q
VL: B1 VL
notes: IgG1/Cκ
B32: 2126-Hu-H48 (antibody, IgG1, name in Kabat numbering, V domains shown)
VH: B1 VH with N57E, R101K
VL: B1 VL
notes: IgG1/Cκ
B33: 2126-Hu-H60 (antibody, IgG1, name in Kabat numbering, V domains shown)
VH: B1 VH with N57E, D103Y
VL: B1 VL
notes: IgG1/Cκ
B34: 2126-Hu-L08 (antibody, IgG1, V domains shown)
VH: B1 VH with N57E
VL: B1 VL with Y53E
notes: IgG1/Cκ
B35: 2126-Hu-L05 (antibody, IgG1, V domains shown)
VH: B1 VH with N57E
VL: B1 VL with N49Y
notes: IgG1/Cκ
B36: 2126-Hu-H36 (antibody, IgG1, V domains shown)
VH: B1 VH with N57E, V69T
VL: B1 VL
notes: IgG1/Cκ
B37: 2126-Hu-H45 (antibody, IgG1, V domains shown)
VH: B1 VH with N57E, I83M
VL: B1 VL
notes: IgG1/Cκ
B38: 2126-Hu-H43 (antibody, IgG1, V domains shown)
VH: B1 VH with N57E, V76T
VL: B1 VL
notes: IgG1/Cκ
B39: 2126-Hu-H56 (antibody, IgG1, name in Kabat numbering, V domains shown)
VH: B1 VH with N57E, D103E
VL: B1 VL
notes: IgG1/Cκ

Target: T1, recombinant human HER2 extracellular domain protein (human, UniProt P04626 23-652)
T1 construct: range 23-652; Range is printed for the immunogen/panning protein; also called ErbB2; recombinant HER2 protein
Test: BLI, Protein A capture

Kd	koff	kon	Binder
13.1 nM	0.0015 s⁻¹	115000 M⁻¹ s⁻¹	B1
25.3 nM	0.00287 s⁻¹	113000 M⁻¹ s⁻¹	B2
35.9 nM	0.00533 s⁻¹	149000 M⁻¹ s⁻¹	B3
14.5 nM	0.00217 s⁻¹	150000 M⁻¹ s⁻¹	B4
5.7 nM	0.000597 s⁻¹	105000 M⁻¹ s⁻¹	B5
5.58 nM	0.000551 s⁻¹	98700 M⁻¹ s⁻¹	B6
5.31 nM	0.000545 s⁻¹	103000 M⁻¹ s⁻¹	B7
17.8 nM	0.00362 s⁻¹	204000 M⁻¹ s⁻¹	B8
4.87 nM	0.000509 s⁻¹	105000 M⁻¹ s⁻¹	B9
17.5 nM	0.00195 s⁻¹	112000 M⁻¹ s⁻¹	B10
6.63 nM	0.000659 s⁻¹	99400 M⁻¹ s⁻¹	B11
19.3 nM	0.00292 s⁻¹	152000 M⁻¹ s⁻¹	B12
39.5 nM	0.00186 s⁻¹	47100 M⁻¹ s⁻¹	B13
33.7 nM	0.00452 s⁻¹	134000 M⁻¹ s⁻¹	B14
8.96 nM	0.000998 s⁻¹	111000 M⁻¹ s⁻¹	B15
23.8 nM	0.00244 s⁻¹	103000 M⁻¹ s⁻¹	B16
22 nM	0.00201 s⁻¹	91400 M⁻¹ s⁻¹	B17
4.31 nM	0.000454 s⁻¹	105000 M⁻¹ s⁻¹	B18
2.83 nM	0.00031 s⁻¹	109000 M⁻¹ s⁻¹	B19
8.81 nM	0.000942 s⁻¹	107000 M⁻¹ s⁻¹	B20

Kd	koff	kon	Binder
5.3 nM	0.000562 s⁻¹	106000 M⁻¹ s⁻¹	B21
13.9 nM	0.000611 s⁻¹	43900 M⁻¹ s⁻¹	B22
1.92 nM	0.0002 s⁻¹	104000 M⁻¹ s⁻¹	B23
46.9 nM	0.00475 s⁻¹	101000 M⁻¹ s⁻¹	B24
6.46 nM	0.00061 s⁻¹	94300 M⁻¹ s⁻¹	B25
7.96 nM	0.000936 s⁻¹	118000 M⁻¹ s⁻¹	B26
5.87 nM	0.000603 s⁻¹	103000 M⁻¹ s⁻¹	B27
5.11 nM	0.000546 s⁻¹	107000 M⁻¹ s⁻¹	B28
8 nM	0.000902 s⁻¹	113000 M⁻¹ s⁻¹	B29
8.4 nM	0.000874 s⁻¹	104000 M⁻¹ s⁻¹	B30
26.3 nM	0.00409 s⁻¹	155000 M⁻¹ s⁻¹	B31
34.1 nM	0.00392 s⁻¹	115000 M⁻¹ s⁻¹	B32
23.8 nM	0.00361 s⁻¹	152000 M⁻¹ s⁻¹	B33
6.57 nM	0.00062 s⁻¹	94300 M⁻¹ s⁻¹	B34
13.4 nM	0.00139 s⁻¹	104000 M⁻¹ s⁻¹	B35
5.3 nM	0.000558 s⁻¹	105000 M⁻¹ s⁻¹	B36
5.76 nM	0.000598 s⁻¹	104000 M⁻¹ s⁻¹	B37
7.2 nM		107000 M⁻¹ s⁻¹	B38
36.2 nM	0.00476 s⁻¹	131000 M⁻¹ s⁻¹	B39
